Laboratory results from the Human Domainome abundance scans (Beltran et al. 2025).
± gives the uncertainty stated by the source.

B1: Neutrophil cytosol factor 2, residues 456 to 514; numbered along this chain, P19878 (parent)
chain: LKKGSQVEALFSYEATQPEDLEFQEGDIILVLSKVNEEWLEGECKGKVGIFPKVFVEDC

Variants of: B1
Test: abundance fitness (aPCA) (normalised: wild type 0, dead -1); higher = more abundant; growth selection in yeast, the domain comes from the species named
Settings: Homo sapiens

Abundance fitness: each site, then its substitutions
E14: W -0.168 ± 0.16 | D -0.073 ± 0.12 | L -0.231 ± 0.14 | I -0.304 ± 0.13 | H 0.236 ± 0.11 | N 0.074 ± 0.11 | F -0.236 ± 0.11 | G -0.233 ± 0.11 | K 0.217 ± 0.18 | Q 0.068 ± 0.33 | P 0.023 ± 0.19 | V 0.027 ± 0.089 | T 0.319 ± 0.093 | C -0.301 ± 0.12 | M -0.483 ± 0.33 | S -0.123 ± 0.083 | Y -0.215 ± 0.12 | R 0.096 ± 0.084 | A 0.059 ± 0.12
F23: N -0.381 ± 0.16 | W -0.889 ± 0.37 | V -0.568 ± 0.16 | P -0.848 ± 0.35 | Q 0.047 ± 0.35 | T -0.772 ± 0.22 | K -0.048 ± 0.32 | Y -0.517 ± 0.14 | C -0.218 ± 0.11 | S -0.655 ± 0.13 | M -0.098 ± 0.21 | G -0.198 ± 0.13 | H -0.117 ± 0.15 | A -0.333 ± 0.2 | E -0.023 ± 0.29 | R -0.223 ± 0.12 | D -0.527 ± 0.14 | I -0.374 ± 0.13
E22: Y -0.565 ± 0.14 | P -0.225 ± 0.21 | Q 0.395 ± 0.46 | D -0.602 ± 0.16 | K -0.473 ± 0.37 | H -0.191 ± 0.22 | V -0.389 ± 0.12 | T -0.24 ± 0.24 | S 0.284 ± 0.068 | I -0.795 ± 0.26 | W -0.787 ± 0.25 | R -0.368 ± 0.15 | F -0.55 ± 0.15 | C -0.627 ± 0.14 | L -0.256 ± 0.13 | N -0.654 ± 0.2 | A 0.103 ± 0.11
E25: H 0.447 ± 0.31 | L -0.731 ± 0.17 | V -0.043 ± 0.078 | N -0.015 ± 0.18 | K 0.711 ± 0.13 | S -0.239 ± 0.092 | I -0.68 ± 0.23 | W -0.78 ± 0.36 | D -0.9 ± 0.33 | G -0.201 ± 0.1 | T 0.035 ± 0.12 | P -0.89 ± 0.27 | M -0.264 ± 0.34 | C -0.275 ± 0.14
I28: V -0.264 ± 0.098 | L -0.284 ± 0.1 | H 0.116 ± 0.099 | C -0.546 ± 0.11 | N 0.043 ± 0.11 | D 0.056 ± 0.13 | W 0.025 ± 0.15 | Q 0.146 ± 0.2 | M -0.065 ± 0.13 | R 0.338 ± 0.075 | T 0.163 ± 0.11 | F -0.443 ± 0.14 | G -0.245 ± 0.095 | A -0.179 ± 0.13 | S 0.096 ± 0.072 | Y -0.546 ± 0.15 | P 0.054 ± 0.18 | K 0.638 ± 0.15
G26: E -0.473 ± 0.36 | H -0.398 ± 0.27 | S -0.457 ± 0.098 | Y -1.03 ± 0.3 | R -0.464 ± 0.14 | T -0.881 ± 0.24 | K 0.016 ± 0.3 | N -0.517 ± 0.23 | L -0.339 ± 0.12 | I -0.807 ± 0.23 | W -0.809 ± 0.29 | M -0.103 ± 0.25 | D -0.683 ± 0.25 | V -0.407 ± 0.12
L10: K -0.611 ± 0.31 | G -0.57 ± 0.29 | N -0.226 ± 0.5 | R 0.046 ± 0.17 | E -0.667 ± 0.47 | W -0.92 ± 0.35 | P -0.539 ± 0.27 | S -0.789 ± 0.29 | T -0.528 ± 0.39 | M 0.116 ± 0.33 | V -0.609 ± 0.2
Y13: A -0.505 ± 0.21 | C -0.432 ± 0.19 | E -0.499 ± 0.34 | N -0.472 ± 0.11 | P -0.21 ± 0.17 | K -0.307 ± 0.17 | F -0.391 ± 0.12 | G -0.165 ± 0.11 | R 0.458 ± 0.085 | S -0.487 ± 0.11 | L -0.573 ± 0.11 | W -0.484 ± 0.26 | D -0.646 ± 0.17 | M 0.207 ± 0.21 | H -0.104 ± 0.12 | T -0.644 ± 0.14 | I -0.487 ± 0.1
D27: E -0.933 ± 0.44 | V -0.969 ± 0.24 | P -0.783 ± 0.33 | K -0.365 ± 0.28 | M -0.377 ± 0.26 | H -0.488 ± 0.18 | Q -0.212 ± 0.27 | L -0.28 ± 0.11 | R -0.323 ± 0.11 | W -0.674 ± 0.26 | C -0.301 ± 0.13 | T -0.695 ± 0.29 | I -0.179 ± 0.1 | A -0.142 ± 0.14 | Y -0.613 ± 0.13 | F -0.493 ± 0.14 | S -0.666 ± 0.11
E8: V 0.959 ± 0.091
A15: C -0.362 ± 0.13 | N -0.853 ± 0.27 | I -0.357 ± 0.17 | F -0.606 ± 0.17 | T -1.03 ± 0.37 | D -0.73 ± 0.24 | H -0.954 ± 0.27 | S 0.051 ± 0.089 | L -0.827 ± 0.22 | R -0.417 ± 0.14 | P -0.005 ± 0.15 | G -0.152 ± 0.12 | W -0.48 ± 0.27 | Y -0.617 ± 0.19
I29: M -0.686 ± 0.26 | H -0.595 ± 0.17 | A -0.53 ± 0.15 | L -0.454 ± 0.12 | N -0.119 ± 0.11 | G -0.365 ± 0.1 | E -0.392 ± 0.22
